# Results published in patent publication US20120219547A1.
# Columns and labels:
# [1] = target: recombinant human tumor necrosis factor-α (human) (UniProt P01375); assay: cell-based or functional assay
# [2] = target: recombinant human tumor necrosis factor-α (human) (UniProt P01375); assay: SPR, Biacore X100; antibody captured by goat anti-human IgG Fc on CM5 chip, TNFα as analyte
# recombinant human tumor necrosis factor-α (human), sequence (P01375 77-233 limits assumed): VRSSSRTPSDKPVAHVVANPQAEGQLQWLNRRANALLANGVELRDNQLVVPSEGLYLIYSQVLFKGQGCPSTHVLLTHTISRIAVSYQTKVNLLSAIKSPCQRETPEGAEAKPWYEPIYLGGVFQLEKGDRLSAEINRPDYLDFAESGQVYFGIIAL
substance,measurement,setting,value
"Humira (adalimumab, purchased from Abbott Laboratories) (antibody)","EC50(ng/mL), neutralization of TNFα killing effect on L929 cell",[1],19.1 ng/mL
same,IC50 (concentration at which 50% of the rhTNFα toxicity to L929 cells can be neutralized),[1],0.01 to 0.04 mg/L
same,Ka,[2],9.3e+09 M⁻¹
same,Kd,[2],0.108 nM
